Assays:
CD40/Fc fusion protein [1] = target: T1, CD40/Fc fusion protein (human, UniProt P25942 21-193); experiment: biosensor (BIAcore), CD40/Fc captured on goat anti-human IgG1 Fc; equilibrium binding curve, left panel
T1 construct: extracellular domain; also called s CD40/Fc; C40/Fc
Description: (§1) This example illustrates the binding affinities of several different CD40-L constructs. Affinity experiments were conducted by biospecific interaction analysis (BIA) using a biosensor, an instrument that combines a biological recognition mechanism with a sensing device or transducer. An exemplary biosensor is BIAcore™, from Pharmacia Biosensor AB (Uppsala, Sweden; see Faigerstam L. G., Techniques in Protein Chemistry II, ed. J. J. Villafranca, Acad. Press, NY, 1991). BIAcore™ uses the optical phenomenon surface plasmon resonance (Kretschmann and Raether, Z. Naturforschung, Teil. A 23:2135, 1968) to monitor the interaction of two biological molecules.
(§2) The biosensor chips were coated with goat anti-human IgG₁ Fc, which was used to bind CD40/Fc (prepared as described in Example 1) to the chip. The different constructs of CD40-L were then added at increasing concentrations; the chip was regenerated between the different constructs by the addition of sodium hydroxide. Two separate experiments were performed. […] The resultant data were analyzed to determine the affinity and association rate constants of the different CD40-L constructs. […]

CD40/Fc fusion protein [2] = target: T1, CD40/Fc fusion protein; experiment: BIAcore, CD40/Fc captured by goat anti-human IgG1 Fc; first experiment
Description: as §1, §2

T1 sequence (P25942 other isoform, or with tags, fused parts or gaps limits assumed): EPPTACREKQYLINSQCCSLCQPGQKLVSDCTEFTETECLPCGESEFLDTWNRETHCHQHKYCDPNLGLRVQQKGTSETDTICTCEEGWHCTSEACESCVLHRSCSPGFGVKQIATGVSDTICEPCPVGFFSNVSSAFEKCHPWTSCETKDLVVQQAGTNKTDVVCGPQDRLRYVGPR

| Binder | EC50 (read off the curve) (CD40/Fc fusion protein [1]) | Site 1 (mol/mol CD40/Fc) (CD40/Fc fusion protein [2]) | Site2 (mol/mol CD40/Fc) (CD40/Fc fusion protein [2]) |
| --- | --- | --- | --- |
| Trimeric human CD40-L (ligand, also called trimeric CD40-L; CD40-L trimer) not shown | ~10 nM | – | – |
| Dimeric murine CD40-L (Fc fusion, not shown: a dimerising Fc or GST, also called Murine Dimer) chain (part 1 of 2): DYKDDDDK chain (part 2 of 2): GGGGSGGGGSGGGGSSSHRRLDKVEEEVNLHEDFVFIKKLKRCNKGEGSLSLLNCEEMRRQFEDLVKDITLNKEEKKENSFEMQRGDEDPQIAAHVVSEANSNAASVLQWAKKGYYTMKSNLVMLENGKQLTVKREGLYYVYTQVTFCSNREPSSQRPFIVGLWLKPSSGSERILLKAANTHSSSQLCEQQSVHLGGVFELQAGASVFVNVTEASQVIHRVGFSSFGLLKL | – | 0.05 mol/mol CD40/Fc | 0.14 mol/mol CD40/Fc |

Source: US20030144182A1 (IMMUNEX, published 2003)
